The assay deals with T1, Factor VIIa (purified human, Enzyme Research Laboratories) (human, UniProt P08709 61-466).
T1 sequence (looked up): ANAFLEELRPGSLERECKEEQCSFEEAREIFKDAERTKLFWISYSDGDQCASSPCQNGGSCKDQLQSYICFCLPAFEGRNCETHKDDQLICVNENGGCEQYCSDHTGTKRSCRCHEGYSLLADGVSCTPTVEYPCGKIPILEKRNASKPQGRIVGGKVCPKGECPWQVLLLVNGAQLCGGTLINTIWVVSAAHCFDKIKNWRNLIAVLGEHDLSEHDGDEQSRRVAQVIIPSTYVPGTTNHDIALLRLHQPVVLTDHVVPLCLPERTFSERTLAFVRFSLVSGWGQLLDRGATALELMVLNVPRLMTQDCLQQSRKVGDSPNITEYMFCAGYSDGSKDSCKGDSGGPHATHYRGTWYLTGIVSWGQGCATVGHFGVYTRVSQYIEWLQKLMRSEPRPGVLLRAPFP
Briefly: Titration of cofactor against 5 nM Factor VIIa; increase in amidolytic activity (Chromozym t-PA); no phospholipid vesicles. Here is the method: After 10 min at room temperature, Chromozym t-PA was added (1 mM final) and the initial rate of substrate hydrolysis was measured at 405 nm using a microplate reader (Molecular Devices, Menlo Park, Calif.). […] Kinetic parameters were calculated using Prism 4 (GraphPad Software, San Diego, Calif.).

B1: recombinant sTF (TF2-219) (receptor)
chain: GTTNTVAAYNLTWKSTNFKTILEWEPKPVNQVYTVQISTKSGDWKSKCFYTTDTECDLTDEIVKDVKQTYLARVFSYPAGNVESTGSAGEPLYENSPEFTPYLETNLGQPTIQSFEQVGTKVNVTVEDERTLVRRNNTFLSLRDVFGKDLIYTLYYWKSSSSGKKTAKTNTNEFLIDVDKGENYCFSVQAVIPSRTVNRKSTDSPVECMGQEKGEFRE
notes: also called soluble TF; soluble Tissue Factor
Regarding B1, the Kd (usually the free concentration of one partner at which half of the binding sites on the other are occupied at equilibrium, for simple one-to-one binding) was 8.17 nM.

B2: sTF-annexin V chimeric protein (other)
chain: GTTNTVAAYNLTWKSTNFKTILEWEPKPVNQVYTVQISTKSGDWKSKCFYTTDTECDLTDEIVKDVKQTYLARVFSYPAGNVESTGSAGEPLYENSPEFTPYLETNLGQPTIQSFEQVGTKVNVTVEDERTLVRRNNTFLSLRDVFGKDLIYTLYYWKSSSSGKKTAKTNTNEFLIDVDKGENYCFSVQAVIPSRTVNRKSTDSPVECMGQEKGEFREGGGGSGGGGSGGGGSAQVLRGTVTDFPGFDERADAETLRKAMKGLGTDEESILTLLTSRSNAQRQEISAAFKTLFGRDLLDDLKSELTGKFEKLIVALMKPSRLYDAYELKHALKGAGTNEKVLTEIIASRTPEELRAIKQVYEEEYGSSLEDDVVGDTSGYYQRMLVVLLQANRDPDAGIDEAQVEQDAQALFQAGELKWGTDEEKFITIFGTRSVSHLRKVFDKYMTISGFQIEETIDRETSGNLEQLLLAVVKSIRSIPAYLAETLYYAMKGAGTDDHTLIRVMVSRSEIDLFNIRKEFRKNFATSLYSMIKGDTSGDYKKALLLLCGEDDPLEHHHHHH
notes: Expressed in the E. coli periplasm from pET-22b(+), whose signal peptide is removed; also called sTF-annV; sTF-AnnV
The molecule B2 showed a Kd of 7.05 nM.
